How the values were obtained:
[1] = tested on: control peptide comprising PCL1 (PCL1 Pep)
[2] = tested on: KL958 (C521S C370S)-PCL1-HSA

Chain of control peptide comprising PCL1 (PCL1 Pep) (chain, as listed by the source): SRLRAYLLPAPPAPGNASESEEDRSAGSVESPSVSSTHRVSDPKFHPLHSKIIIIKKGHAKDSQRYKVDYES

Molecule	protease cleavage of the peptide in vitro [1]	protease cleavage in reaction buffer, immunoblot with anti-KL antibodies [2]	protease cleavage in reaction buffer, immunoblot with anti-KL antibodies (KL958 (C521S)-PCL1-HSA)
kallikrein 2 (KLK2)	The ability of two proteases, kallikrein 2 (KLK2) and matrix metalloproteinase 7 (MMP7), to cleave the protease cleavable linker PCL1 was confirmed using a control peptide comprising PCL1 (PCL1 Pep)	–	–
matrix metalloproteinase 7 (MMP7) (enzyme, UniProt P09237 95-267, looked up, species assumed) Matrilysin: YSLFPNSPKWTSKVVTYRIVSYTRDLPHITVDRLVSKALNMWGKEIPLHFRKVVWGTADIMIGFARGAHGDSYPFDGPGNTLAHAFAPGTGLGGDAHFDEDERWTDGSSLGINFLYAATHELGHSLGMGHSSDPNAVMYPTYGNGDPQNFKLSQDDIKGIQKLYGKRSNSRKK	The ability of two proteases, kallikrein 2 (KLK2) and matrix metalloproteinase 7 (MMP7), to cleave the protease cleavable linker PCL1 was confirmed using a control peptide comprising PCL1 (PCL1 Pep)	PCL1-containing KL polypeptides displayed cleavage of the linker, resulting in a shorter KL polypeptide in the presence of MMP7	PCL1-containing KL polypeptides displayed cleavage of the linker, resulting in a shorter KL polypeptide in the presence of MMP7

Reference: patent publication US20250376667A1
